{
  "source": "patent US20160084820A1",
  "about": "“METHODS OF TREATING OR PREVENTING PERIODONTITIS AND DISEASES ASSOCIATED WITH PERIODONTITIS” (priority 2010, published 2016)",
  "molecules": {"B1": {"name": "C5a: mouse C5a anaphylatoxin, purchased from Cell Sciences or R&D Systems (protein)", "chain": "NLHLLRQKIEEQAAKYKHSVPKKCCYDGARVNFYETCEERVARVTIGPLCIRAFNECCTIANKIRKESPHKPVQLGR"}, "B2": {"name": "C5a^desArg: desarginated form of mouse C5a (protein)", "chain": "NLHLLRQKIEEQAAKYKHSVPKKCCYDGARVNFYETCEERVARVTIGPLCIRAFNECCTIANKIRKESPHKPVQLG"}},
  "key": {"[1]": {"test_system": "GSK3β Ser9-phosphorylation", "test": "GSK3β Ser9 phosphorylation ELISA in macrophages", "type": "cell-based, mouse", "conditions": "C5a 50 nM without Pg", "procedure": "PKA activity in lysates of activated cells was determined using the ProFluor™ PKA assay, according to the instructions of the manufacturer (Promega) (Hajishengallis et al., 2008, PNAS USA, 105:13532-7). Phosphorylation of GSK313 on Ser9 and total GSK3β were monitored using FACE™ GSK3β ELISA kits (Active Motif)."}, "nitric oxide production": {"test_system": "nitric oxide production", "test": "NO2− (nitric oxide) production, Griess reaction-based assay, macrophages", "type": "cell-based, mouse", "conditions": "for inhibiting nitric oxide, C5a vs C5a^desArg: 24 h"}, "IL-6 production": {"test_system": "IL-6 production", "test": "IL-6 ELISA in P. gingivalis-stimulated macrophages", "type": "cell-based, mouse", "conditions": "C5a 50 nM, 5 or 24 hours", "procedure": "Mouse peritoneal macrophages were incubated for 5 or 24 hours at 37° C. with P. gingivalis (Pg; MOI=10:1) in the presence or absence of C5a (50 nM), and culture supernatants were assayed for IL-6 by ELISA."}, "IL-12p70 production": {"test_system": "IL-12p70 production", "test": "IL-12p70 induction in IFN-gamma-primed macrophages, ELISA", "type": "cell-based, mouse", "procedure": "Induction of nitric oxide production was assessed by measuring the amount of NO2− (stable metabolite of nitric oxide) in stimulated culture supernatants using a Griess reaction-based assay kit (R&D Systems), as previously performed (Hajishengallis et al., 2008, PNAS USA, 105:13532-7). Levels of cAMP in activated cell extracts were measured using a cAMP enzyme immunoassay kit (Cayman Chemical) (Liang et al., 2007, J. Immunol., 178:4811-9). C5a-induced intracellular calcium mobilization was monitored in cells (4×10^6) loaded with 1 μM Indo 1-AM in the presence of 1 μM pluronic acid, as previously described (Ali et al., 1993, J. Biol. Chem., 268:24247-54). Calcium traces were recorded in a Perkin-Elmer fluorescence spectrometer (Model 650-19) with an excitation wavelength of 355 nm and an emission wavelength of 405 nm. Induction of cytokine production in activated cell culture supernatants or in the peritoneal fluid of infected mice was determined by ELISA using kits from eBioscience or Cell Sciences. C5a levels were measured by sandwich ELISA, employing a pair of capture and biotinylated anti-05a mAbs (BD Pharmingen), according to the manufacturer's protocol.\nWhether C5a inhibits P. gingivalis-induced IL-12p70 in peritoneal macrophages was investigated. Since macrophages are generally poor producers of IL-12p70 in vitro unless primed with IFN-gamma, macrophages used in these experiments were primed with IFN-gamma (0.1 μg/ml). […] The host TLR response against P. gingivalis is predominantly mediated by TLR2, both in vitro and in vivo. Therefore, whether C5a-mediated inhibition of P. gingivalis-induced IL-12p70 could involve a C5aR-TLR2 crosstalk additionally was examined."}, "[2]": {"test_system": "negative regulators of TLR signaling", "test": "Expression of negative regulators of TLR signaling, quantitative real-time PCR", "type": "cell-based, mouse", "conditions": "C5a 50 nM, 4 hours", "procedure": "Gene expression in resting or activated mouse macrophages was quantified using quantitative real-time PCR. Briefly, RNA was extracted from cell lysates using the PerfectPure RNA cell kit (5 Prime, Fisher) and quantified by spectrometry at 260 and 280 nm. The RNA was reverse-transcribed using the High-Capacity cDNA Archive kit (Applied Biosystems) and quantitative real-time PCR with cDNA was performed using the ABI 7500 Fast System, according to the manufacturer's protocol (Applied Biosystems). TaqMan probes, sense primers, and antisense primers for expression of a house-keeping gene (GAPDH) or iNOS (or the genes shown in FIG. 7) were purchased from Applied Biosystems.\nSupplemental experiments also examined the relative expression of negative regulators of TLR signaling in P. gingivalis-stimulated macrophages in the absence or presence of C5a. Mouse macrophages were stimulated with P. gingivalis (Pg; at a MOI=10:1) or medium control, in the presence or absence of 50 nM of C5a, and incubated for 4 hours. Quantitative real-time PCR (ABI 7500 Fast System; Applied Biosystems) was used to determine mRNA expression levels for the indicated molecules (normalized against GAPDH mRNA levels), which are shown in FIG. 7."}, "[3]": {"test_system": "mouse peritoneal macrophages", "test": "P. gingivalis phagocytosis and receptor expression by flow cytometry", "type": "cell-based", "procedure": "First, experiments were performed to determine the effect of C5a (50 nM) or C3a (200 nM) on P. gingivalis phagocytosis by unprimed or IFN-γ-primed mouse peritoneal macrophages (FIG. 6A). The phagocytic index was calculated following a 30-min incubation using the following formula: % positive cells for fluorescently labeled P. gingivalis×MFI/100 (extracellular fluorescence was quenched prior to flow cytometry). Mouse macrophages were incubated at 37° C. for 30 min (B) or 24 hours (C) with medium, C5a (50 nM) only, or P. gingivalis (MOI=10:1) with or without C5a (50 nM). The expression levels of the indicated receptors, which coordinately mediate P. gingivalis uptake, were determined by flow cytometry after cell staining with appropriate fluorescently labeled antibodies (FIGS. 6B and 6C). The 30-min time point was examined to determine possible induced surface expression of preformed receptors from intracellular pools. […] Mouse-specific mAbs to TLR2 (clone 6C2), TLR1 (TR23), CD14 (Sa2-8), CD11b (M1/70), and CD18 (M18/2) were obtained from e-Bioscience."}, "neutrophils": {"test_system": "neutrophils", "test": "Intracellular Ca2+ mobilization (Indo-1 AM), neutrophils", "type": "cell-based, mouse"}, "intracellular cAMP": {"test_system": "intracellular cAMP", "test": "cAMP enzyme immunoassay in P. gingivalis-stimulated macrophages", "type": "cell-based, mouse", "conditions": "for elevating cAMP, C5a vs C5a^desArg: 1 h"}, "macrophages [4]": {"test_system": "macrophages", "test": "Intracellular Ca2+ mobilization (Indo-1 AM), macrophages", "type": "cell-based, mouse", "conditions": "50 nM"}, "macrophages [5]": {"test_system": "macrophages", "description": "Thioglycollate-elicited macrophages were isolated from the peritoneal cavity of wild-type or mice deficient in TLR2, TLR4, C3aR, or C5aR (The Jackson Laboratory) (Zhang et al., 2007, Blood, 110:228-36; Gajishengallis et al., 2006, Cell. Microbiol., 8:1557-70), in compliance with established federal guidelines and institutional policies. The macrophages were cultured at 37° C. and 5% CO2 in RPMI 1640 (InVitrogen) supplemented with 10% heat-inactivated FBS, 2 mM L-glutamine, 100 units/ml penicillin G, 100 μg/ml streptomycin, and 0.05 mM 2-ME.\nThioglycollate-elicited macrophages were isolated from the peritoneal cavity of wild-type or mice deficient in TLR2 or C5aR (Hajishengallis et al., 2006, Cell. Microbiol., 8:1557-70; Zhang et al., 2007, Blood, 110:228-36) in compliance with established institutional policies and federal guidelines. Both BALB/c and C57BL/6 C5aR-deficient mice were used (with their respective wild-type controls): The BALB/c mice were obtained from The Jackson Laboratory; and the C57BL/6 C5aR-deficient mice were originally provided by Dr. Craig Gerard (Harvard Medical School) and are now housed at The Jackson Laboratory. The TLR2-deficient mice were originally C57BL/6 (The Jackson Laboratory) and were backcrossed for nine generations onto a BALB/c genetic background before their use in these studies. […]"}, "mouse neutrophils": {"test_system": "mouse neutrophils", "test": "In vitro killing of Pg and oxidative burst by mouse neutrophils", "type": "cell-based", "conditions": "presence of C5a", "procedure": "(§1) To directly implicate neutrophils in this evasion mechanism, in vitro experiments were performed. It was shown that the ability of mouse or human neutrophils (purified from peripheral blood5 collected under IRB approval) to kill Pg was inhibited in the presence of C5a in a C5aR-dependent manner, whereas their oxidative burst response was enhanced."}, "[6]": {"test_system": "phagocytosed P. gingivalis in mouse peritoneal macrophages", "type": "cell-based, P. gingivalis ATCC 33277", "conditions": "for promoting intracellular survival, C5a vs C5a^desArg: 24 h", "procedure": "The viability of phagocytosed P. gingivalis was monitored by an antibiotic protection-based intracellular survival assay, as previously described (Wang et al., 2007, J. Immunol., 179:2349-58). Briefly, mouse peritoneal macrophages were allowed to phagocytose P. gingivalis (MOI=10:1; 5×10^6 bacteria and 5×10^5 cells) for […] at 37° C. This was followed by washing to remove extracellular nonadherent bacteria and 1-hour treatment with antibiotics (300 μg/ml gentamicin and 200 μg/ml metronidazole) to eliminate residual or extracellular adherent bacteria. The macrophages were subsequently cultured overnight (for a total of 24 hours) or for 48 hours Immediately after, the macrophages were washed and lysed in sterile distilled water, and viable counts of internalized P. gingivalis were determined by plating serial dilutions of macrophage lysates on blood agar plates subjected to anaerobic culture.\nThe viability of phagocytosed P. gingivalis was monitored by an antibiotic protection-based intracellular survival assay, as previously described (Wang et al., 2007, J. Immunol., 179:2349-58)). Briefly, mouse peritoneal macrophages were allowed to phagocytose P. gingivalis (at a MOI=10:1; 5×10^6 bacteria and 5×10^5 macrophages) for 30 min at 37° C. This was followed by washing to remove extracellular nonadherent bacteria and 1-hour treatment with antibiotics (300 μg/ml gentamicin and 200 μg/ml metronidazole) to eliminate residual or extracellular adherent bacteria. The macrophages were subsequently cultured overnight for a total of 24 hours Immediately after, the macrophages were washed and lysed in sterile distilled water and viable counts of internalized P. gingivalis were determined by plating serial dilutions of macrophage lysates on blood agar plates subjected to anaerobic culture."}, "human neutrophils": {"test_system": "human neutrophils", "test": "In vitro killing of Pg and oxidative burst by human neutrophils", "type": "cell-based", "conditions": "presence of C5a", "procedure": "as §1"}},
  "note": "Where two headings read alike, the source gives them in different places.",
  "data": [
    {"molecule": "B1", "values": [
      {"measurement": "Ser9-phosphorylation of GSK3β by C5a itself", "setting": "[1]", "result": "only slightly increased"},
      {"measurement": "inhibiting nitric oxide, C5a vs C5a^desArg", "setting": "nitric oxide production; 10 nM", "result": "stronger effects than C5a^desArg"},
      {"measurement": "production of nitric oxide in P. gingivalis-stimulated macrophages", "setting": "nitric oxide production; C5a 50 nM, unprimed or IFN-gamma-primed, 24 hours", "result": "significantly inhibited"},
      {"measurement": "IL-6 production in P. gingivalis-stimulated macrophages", "setting": "IL-6 production", "result": "up-regulation of IL-6 production"},
      {"measurement": "inhibition of P. gingivalis-induced IL-12p70", "setting": "IL-12p70 production; 10 nM", "result": "already effective"},
      {"measurement": "P. gingivalis-induced IL-12p70 production", "setting": "IL-12p70 production; C5a 50 nM, 24 h", "result": "significantly inhibited"},
      {"measurement": "LPS-induced IL-12p70 production", "setting": "IL-12p70 production; C5a 50 nM, E. coli LPS 0.1 μg/ml, 24 h", "result": "significantly inhibited"},
      {"measurement": "expression of negative regulators of TLR signaling with P. gingivalis and C5a", "setting": "[2]", "result": "no synergistic or additive effects"},
      {"measurement": "P. gingivalis phagocytosis", "setting": "[3]; C5a 50 nM or C3a 200 nM, 30-min incubation", "result": "not significantly affected"},
      {"measurement": "expression of macrophage receptors CD14, TLR2, CD11b/CD18", "setting": "[3]; C5a 50 nM, 30 min or 24 hours", "result": "essentially unaffected"},
      {"measurement": "intracellular Ca^2+ mobilization", "setting": "neutrophils", "result": "only C5a was active"},
      {"measurement": "elevating cAMP, C5a vs C5a^desArg", "setting": "intracellular cAMP; 10 nM", "result": "stronger effects than C5a^desArg"},
      {"measurement": "elevation of intracellular cAMP, C5a + P. gingivalis relative to P. gingivalis alone", "setting": "intracellular cAMP; C5a 50 nM, Pg MOI=10:1", "result": "> 3", "unit": "fold"},
      {"measurement": "cAMP difference AMD+C5a+Pg vs. AMD+Pg", "setting": "intracellular cAMP; CXCR4 blockade by AMD3100 1 μg/ml", "result": "> 6", "unit": "fold"},
      {"measurement": "cAMP response to C5a by itself", "setting": "intracellular cAMP; macrophages without P. gingivalis", "result": "failed to induce a cAMP response"},
      {"measurement": "intracellular Ca^2+ mobilization", "setting": "macrophages [4]", "result": "comparable intracellular Ca^2+ mobilization"},
      {"measurement": "cell viability compared to medium-only treatments", "setting": "macrophages [5]", "result": "None of the experimental treatments, including treatments with C5a up to 100 nM, affected cell viability"},
      {"measurement": "ability of neutrophils to kill Pg", "setting": "mouse neutrophils", "result": "inhibited"},
      {"measurement": "oxidative burst response", "setting": "mouse neutrophils", "result": "enhanced"},
      {"measurement": "promoting intracellular survival, C5a vs C5a^desArg", "setting": "[6]; 10 nM", "result": "stronger effects than C5a^desArg"},
      {"measurement": "intracellular survival of P. gingivalis in macrophages (viable counts of internalized bacteria)", "setting": "[6]; Pg MOI=10:1, C5a 50 nM or C3a 200 nM, 24 or 48 hours post-infection", "result": "significantly promoted"},
      {"measurement": "Pg CFU with C5a in the absence of inhibitors", "setting": "[6]; macrophages with Pg and C5a, 24 hours postinfection, FIG. 2D dashed line", "result": "13.7±2.7 [×10^4] CFU"},
      {"measurement": "ability of neutrophils to kill Pg", "setting": "human neutrophils", "result": "inhibited"},
      {"measurement": "oxidative burst response", "setting": "human neutrophils", "result": "enhanced"}
    ]},
    {"molecule": "B2", "values": [
      {"measurement": "inhibiting nitric oxide, C5a vs C5a^desArg", "setting": "nitric oxide production; 50 nM", "result": "no significant differences"},
      {"measurement": "inhibition of P. gingivalis-induced IL-12p70", "setting": "IL-12p70 production; 10 nM", "result": "not"},
      {"measurement": "inhibition of P. gingivalis-induced IL-12p70", "setting": "IL-12p70 production; 50 nM", "result": "significant (p<0.05) inhibition"},
      {"measurement": "intracellular Ca^2+ mobilization", "setting": "neutrophils", "result": "only C5a was active"},
      {"measurement": "elevating cAMP, C5a vs C5a^desArg", "setting": "intracellular cAMP; 50 nM", "result": "no significant differences"},
      {"measurement": "intracellular Ca^2+ mobilization", "setting": "macrophages [4]", "result": "comparable intracellular Ca^2+ mobilization"},
      {"measurement": "promoting intracellular survival, C5a vs C5a^desArg", "setting": "[6]; 50 nM", "result": "no significant differences"}
    ]}
  ]
}
